# Experimental data reported in article PMC6657678, “The Bub1-TPR Domain Interacts Directly with Mad3 to Generate Robust Spindle Checkpoint Arrest” (Current Biology, 2019).
# T1: His-Bub1TPR (fission yeast Bub1 residues 22-184) (S. pombe, UniProt O94751 22-184)
# T1 construct: Bub1, S. pombe, TPR domain, residues 22-184; Cloned into pET-DUET; also called recombinant Bub1-TPR; source: E. coli ArcticExpress, purified (cobalt IMAC, dialysis); not shown: His, N-terminal, kept
# T1 sequence (looked up): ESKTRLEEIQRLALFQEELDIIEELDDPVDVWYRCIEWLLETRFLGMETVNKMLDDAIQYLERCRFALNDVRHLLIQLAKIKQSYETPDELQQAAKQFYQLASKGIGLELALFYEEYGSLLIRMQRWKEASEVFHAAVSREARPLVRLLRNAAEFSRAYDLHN
# Target: T1, His-Bub1TPR (fission yeast Bub1 …)
# Assay: SEC; Superdex 200 increase 10/300 in 50 mM Tris pH 8.0, 150 mM NaCl, 5% glycerol, 2 mM DTT; proteins alone and mixed, fractions on SDS-PAGE
# Conditions: both partners purified
binder,measurement,value
"His-GFP-Mad3TPR (fission yeast Mad3 residues 44-201) (domain or fragment, S. pombe, UniProt O59767 44-201, looked up, Mad3, S. pombe, TPR domain, residues 44-201; Cloned into the 9GFP (N-terminal His-GFP tag) LIC vector; source: E. coli ArcticExpress, purified (cobalt IMAC, dialysis); not shown: His, N-terminal, kept; GFP, N-terminal, kept) TEKEVAGLQKERMGHERKIETSESLDDPLQVWIDYIKWTLDNFPQGETKTSGLVTLLERCTREFVRNPLYKDDVRYLRIWMQYVNYIDEPVELFSFLAHHHIGQESSIFYEEYANYFESRGLFQKADEVYQKGKRMKAKPFLRFQQKYQQFTHRWLEF",binding result,binds
